Biological target: HIV-1 RT (HIV-1, UniProt P03366;P03366 600-1159;600-1039)
Assay: off-rate (dissociation with trap); dissociates much more slowly than from dsDNA N1
Conditions: protein: recombinant; copies: 1;1; label: 5'-32P on the 33 nt DNA primer; 33 nt DNA primer on 50 nt RNA template; template 5' overhang 15 nt, 3' overhang 2 nt

B1: D33-R50 RNA/DNA hybrid primer-template (DNA:RNA)
DNA: TCCCCGGGTACCGAGCTCGAATTCGCCCTATAG
RNA: UUGUAAUACGACUCACUAUAGGGCGAAUUCGAGCUCGGUACCCGGGGAUC
  binding result: binds
